The record followed here is paper PMC2831474 (Archives of biochemistry and biophysics, 2010).

The assay addresses preformed F-actin (chicken pectoral muscle skeletal actin polymerized with 0.1 M KCl) (chicken, UniProt P68139 1-377). In words: co-sedimentation.

B1: N-acetylated striated muscle long α-tropomyosin (stTM) (natural protein)
chain: not shown
modifications: N-acetylated
In the case of B1, the “stoichiometry N” value was 0.25 ± 0.03 tropomyosin/actin molar ratio.
